From PMC11044841 (2024)

Molecular target: GST-NTF2L (GST-tagged NTF2-like domain of G3BP1) (human)
Assay: SPR

GST-NTF2L (GST-tagged NTF2-like domain of G3BP1) (human), sequence (chain, as listed by the source): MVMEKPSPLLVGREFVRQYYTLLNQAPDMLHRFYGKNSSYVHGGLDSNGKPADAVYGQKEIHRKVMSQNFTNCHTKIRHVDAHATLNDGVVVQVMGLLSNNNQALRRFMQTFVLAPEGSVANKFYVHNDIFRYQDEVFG

Binder	Kd
MALHSPQYIFGDFSPDEFNQFFVTP [USP10 (1–25) peptide]	110 nM
LTFGDFDEHEVDALASGITFGDFDD [SFV nsP3 (449–473) peptide]	2500 nM
